Experimental data: article PMC3735542, “Light Driven CO2 Fixation by Using Cyanobacterial Photosystem I and NADPH-Dependent Formate Dehydrogenase” (PLoS ONE, 2013)
Like-named read-outs stand apart in the source and are kept apart here.

Experiments:
Assay in all cases: purified protein
[1] = test system: T1, NC(=O)c1ccc[n+]([C@@H]2O[C@H](COP(=O)(O)OP(=O)(O)OC[C@H]3O[C@@H](n4cnc5c(N)ncnc54)[C@H](O)[C@@H]3O)[C@@H](O)[C@H]2O)c1; assay type: biochemical, Pseudomonas sp. 101; details: 500 mM formate, PBS, 0.05% Triton X-100
T1 construct: synthetic gene in pET22b (NdeI/NotI), C-terminal His tag kept, E. coli BL21(DE3), about 44 kDa

[2] = test system: T2, NC(=O)c1ccc[n+]([C@@H]2O[C@H](COP(=O)(O)OP(=O)(O)OC[C@H]3O[C@@H](n4cnc5c(N)ncnc54)[C@H](OP(=O)(O)O)[C@@H]3O)[C@@H](O)[C@H]2O)c1; assay type: biochemical, Pseudomonas sp. 101; details: 500 mM formate, PBS, 0.05% Triton X-100
T2 construct: synthetic gene in pET22b (NdeI/NotI), C-terminal His tag kept, E. coli BL21(DE3), about 44 kDa

purified protein [3] = substrate: NC(=O)c1ccc[n+]([C@@H]2O[C@H](COP(=O)(O)OP(=O)(O)OC[C@H]3O[C@@H](n4cnc5c(N)ncnc54)[C@H](OP(=O)(O)O)[C@@H]3O)[C@@H](O)[C@H]2O)c1; assay type: biochemical, Solanum tuberosum; details: 500 mM formate, PBS, 0.05% Triton X-100; positions 197/199 from methods and Table 1, b33 prints 195/197
purified protein [4] = substrate: O=CO; details: 2 mM NADP+, PBS, 0.05% Triton X-100; same doubt on QN or QH
purified protein [5] = substrate: NC(=O)c1ccc[n+]([C@@H]2O[C@H](COP(=O)(O)OP(=O)(O)OC[C@H]3O[C@@H](n4cnc5c(N)ncnc54)[C@H](OP(=O)(O)O)[C@@H]3O)[C@@H](O)[C@H]2O)c1; assay type: biochemical, Arabidopsis thaliana

## Pseudomonas FDH (PsFDH) (Pseudomonas sp. 101; D222Q/H224N)
[1]
  Km: 1000 ± 600 µM
  Vmax: 0.55 µM/min
[2]
  Km: 350 ± 10 µM

B1: potato FDH (PoFDH) (Solanum tuberosum; D224Q/L226H) (protein)
chain: LQASPGPKKIVGVFYKANEYAEMNPNFLGCAENALGIREWLESKGHQYIVTPDKEGPDCELEKHIPDLHVLISTPFHPAYVTAERIKKAKNLQLLLTAGIGSDHVDLKAAAAAGLTVAEVTGSNTVSVAEDELMRILILVRNFLPGHHQVINGEWNVAAIAHRAYDLEGKTVGTVGAGRIGRLLLQRLKPFNCNLLYHQRHKMDSELENQIGAKFEEDLDKMLSKCDIVVINTPLTEKTKGMFDKERIAKLKKGVLIVNNARGAIMDTQAVVDACNSGHIAGYSGDVWYPQPAPKDHPWRYMPNQAMTPHISGTTIDAQLRYAAGTKDMLDRYFKGEDFPAENYIVKDGELAPQYR
notes: synthetic gene in pET22b (NdeI/NotI), C-terminal His tag kept, E. coli BL21(DE3); primer encodes CNLLYH-X-R-X-KMDSEL
Purified protein [3]
  Km: 620 ± 50 µM

B2: Arabidopsis FDH (AtFDH) (Arabidopsis thaliana; D227Q/L229N) (protein)
chain: ASSGDSKKIVGVFYKANEYATKNPNFLGCVENALGIRDWLESQGHQYIVTDDKEGPDCELEKHIPDLHVLISTPFHPAYVTAERIKKAKNLKLLLTAGIGSDHIDLQAAAAAGLTVAEVTGSNVVSVAEDELMRILILMRNFVPGYNQVVKGEWNVAGIAYRAYDLEGKTIGTVGAGRIGKLLLQRLKPFGCNLLYHQRNQMAPELEKETGAKFVEDLNEMLPKCDVIVINMPLTEKTRGMFNKELIGKLKKGVLIVNNARGAIMERQAVVDAVESGHIGGYSGDVWDPQPAPKDHPWRYMPNQAMTPHTSGTTIDAQLRYAAGTKDMLERYFKGEDFPTENYIVKDGELAPQYR
notes: synthetic gene in pET22b (NdeI/NotI), C-terminal His tag kept, E. coli BL21(DE3); partly digested on purification; primer encodes CNLLYH-X-R-X-QMAPEL
Purified protein [4]
  Km: 96000 ± 14000 µM
Purified protein [5]
  Km: 910 ± 70 µM
